A short description of this data set: soluble on expression in E. coli; label from the status in PepcDB or PDB records.
Turning to “MLRFGFAAVLLVLAGCSAPMGPEALGPGSYQAAPDPGPFLTPADAQRAFPAVVARVEPVAEAICRERTRGVPCDFQIAVDARPGLDPNAFQTLDDYGRPVIGLTLSLISDARNVDELAFVVGHETAHHILGHIPRQRETALTGAVLAGVLAQMGGADAQTIRSVQEFGANVGARSYSKNFELEADGLGTEIAIRAGYDPVHGAQFFTRLPDPGDTFLGSHPPNAQRIAAVRRAAESIGYVSAWLEHHHHHH”, the “soluble on expression in E. coli” value is recorded as “not soluble”.
In the case of “MLRHLGQLSVAHRGSGLHDAYVVNPAQQLDPELAPPPVVYVLETSYVALLLKNPEDVGYQLARRHDYCFALAPHLCILYSRHRVCERVKHHHSHPPPATCSS” it was “soluble”; in that of “MLRIAYRLLWRALLPFALLRLWWRGRKEPGYRQHVGERLGFYRPRANPDHPLLWVHAVSVGETRAAQPLIDALLARFPQHDVLLTHMTPTGRRTGAEFAAQRNGRVIQAYLPYDLAGAVDRFLRHFQPRLGLLMETEIWPVLIERAHHAGVPMVLVNGRLSERSHRRTARLGQAARETYAQLAAVLAQTPDDADRYRSLGVPRVRVTGNLKFDITPHVDQIMMGRALRDALGGRAVWVAASTREGEEPLLLDAWHAHRAQHAGRRHPLLILVPRHPQRFDEVAQLAGLKGLRVARRSALSLSAAEAPDAAGVLDADILLGDSMGEMALYYAAAQAAFIGGSLLPMGGQNLIEACAVGTPVVIGPHTFNFAQATRDAVAAGACVQVEDAACAVRVIDQWLSDADAREAASRAALAFAATHGGATARTVEAVASLVLPSLLEHHHHHH”, “not soluble”.
As for “MLRISRDLVIDEDDIEIGFVRASGPGGQNVNKVATSAQLRFDTRKLTLPEDATIRLARIAGQRMTKDGVIVIHAQRFRTQERNRQDAIDRLVEILSEALEHHHHHH”, the “soluble on expression in E. coli” value is reported as “not soluble”.
Take “MLRLARKGLQTAVVRSYAKDVKFGAEGRQAMLVGVNLLADAVSVTMGPKGRNVIIEQSWGSPKITKDGVTVAKSIDLKDKYQNLGAKLIQDVANKANEEAGDGTTCATVLARAIAKEGFESIRQGGNAVEIRRGVMNAVEVVVAELKKISKKVTTPEEIAQVATISANGDTVVGNLISDAMKKVGTTGVITVKDGKTLNDELELIEGMKFDRGYISPYFITSAKGAKVEYEKALVLLSEKKISQVQDIVPALELANKLRRPLVIIAEDVDGEALTTLVLNRLKVGLQVVAIKAPGFGDNRKNTLKDMGIATGATIFGDDSNLIKIEDITANDLGEVDEVTITKDDTLLLRGRGDQTEIEKRIEHITDEIEQSTSDYEKEKLNERLAKLSKGVAVLKIGGGSEVEVGEKKDRVTDALCATRAAVEEGIVPGGGVALLRSLTALKNYKAANEDQQIGVNIVKKALTQPIATIVKNAGLEPSSIIDEVTGNSNTSYGYDALNGKFVDMFEAGIIDPTKVVRTALQDASGVASLLATTECVVTEIPKEEAVGGPAGGMGGMGGMGGMGGMGF”: the “soluble on expression in E. coli” value is “not soluble”.
As for “MLRLRTPSRIHITLIDLNGSIGRVDGGVGLALEEPHIEIKAKESETFVLKGEPINRERFEIAAAKMAEYCGRGAEIEVVSDYDAHVGLGSGTQISLAVGRAFSELYGLNLTTRQIAEIMGRGGTSGIGVAVFDHGGLVVDGGHSTKEKKSFLPSSASRAKPAPMIARLDFPDWNVVLAIPDLKGFFGEREVNLFQKSCPVPLEDVREICHLILMKMLPAVVEADLDEFGKALKRIQELGFKKAEVEQYGELIKGCFDLADCIGMSSTGPTVYAITDSNAGGIERSLRDYFAEKGYECRTIVTKARNRGVEIEV”, the entry is “not soluble”.
Consider “MLRPVETPTREIKKLDGLWAFSLDRENCGIDQRWWESALQESRAIAVPGSFNDQFADADIRNYAGNVWYQREVFIPKGWAGQRIVLRFDAVTHYGKVWVNNQEVMEHQGGYTPFEADVTPYVIAGKSVRITVCVNNELNWQTIPPGMVITDENGKKKQSYFHDFFNYAGIHRSVMLYTTPNTWVDDITVVTHVAQDCNHASVDWQVVANGDVSVELRDADQQVVATGQGTSGTLQVVNPHLWQPGEGYLYELCVTAKSQTECDIYPLRVGIRSVAVKGEQFLINHKPFYFTGFGRHEDADLRGKGFDNVLMVHDHALMDWIGANSYRTSHYPYAEEMLDWADEHGIVVIDETAAVGFNLSLGIGFEAGNKPKELYSEEAVNGETQQAHLQAIKELIARDKNHPSVVMWSIANEPDTRPQGAREYFAPLAEATRKLDPTRPITCVNVMFCDAHTDTISDLFDVLCLNRYYGWYVQSGDLETAEKVLEKELLAWQEKLHQPIIITEYGVDTLAGLHSMYTDMWSEEYQCAWLDMYHRVFDRVSAVVGEQVWNFADFATSQGILRVGGNKKGIFTRDRKPKSAAFLLQKRWTGMNFGEKPQQGGKQ”, for which the “soluble on expression in E. coli” value is “soluble”.
In the case of “MLRTQFEEELLNLHNQFYEMGMMVSSAVHKSVKAYINHDKKLAQEVIDRDIEINDMEVKLEKKSFEMIALQQPVTTDLRMIITVMKASSDLERMADHAVSIAKSTIRLKGETRIPEIEKEISDMSDYVKKMVDNVLIAYVKTDQKDARMIAQMDDRTNEYFDSIYKHAVEAMKANPETVISGTDYLHVAQYLERIGDYVTNICEWIVYLATGKITELNSNRDEQF”, the “soluble on expression in E. coli” value was “not soluble”.
As for “MLRVLIVDDEMLARDELAYLLKRTNDEMEINEAENIESAFDQMMDQKPDLLFLDVDLSGENGFDIAKRLKKMKHPPAIVFATAYDQYALKAFEVDALDYLTKPFDEERIQQTLKKYKKVNRDIVETEQNSHAGQHKLALSVGESIVIVDTKDIIYAGTEDGHVNVKTFDHSYTVSDTLVVIEKKLPDSDFIRVHRSFVVNTEYIKEIQPWFNSTYNLIMKDGSKIPVSRTYAKELKKLLHI”, the entry is “not soluble”.
As for “MLSFVIPAHDEAALIGDTLQCLHACAQAMQLDHEVIVVADACEDATAAIARSHGAQVLEVLEVQLRHIAATRNAGAQAAQGEHLLFLDADTSINPQVVGAALAALDAGAVGGGARVHLQGKRVWSERVAQAVFGWFFRVSGIAPGCFLFCTRAAFVSAGGFDTRYYAGEDVALSRALARCGRFVILRQTVHTSDRKLRSFSKREHLGLLLRFLWRGRRMLQTRDALGFWYQRRRLEHHHHHH”, the entry is “not soluble”; as for “MLSIVCPPLSAQWAENFDHITALTSPPWRGQIADFAIIKKQLKLYVEYPDDLNESRIAITVPYFKTTTWKGDVKLDFRPTINNYLYCYLYCYGEISDSEFDYVALRWGSGSKGVDLLDVRLRVLPSGESSIVRSDILIDGSAYPLGTKPFTSFTVTYAVGSGWQLWVNGANDTGNETVLIGSSSFDVESPFQSGGLGIDCFYTKSRSKAFSFDNLSVSEGAVSPPEEEEEPIPLGKPTLNELMANPLEGGSEYIELYNPTDKPVVPSKFAIGILRNGSYTTTTALPTVADTLYPGQYIVFAKKSEGVTDFYPQAQNVVTMSNLPQLANKGFTIGLFEEGLDQPLEEVVYSPKMLGEGNVTRRGVSLERISFETPASDPTNWAGGLPSAGYATPGYLNSQSSNADTTQLGLPNNETEGNGKSYLPPASIAEE”, “not soluble”; as for “MLSKKELAIITFLIHHKEQFVSSATLAEVIGMSDRTVRKYLKELISSLPEHGAHIISKQGRGYCLEIDHSMAFDIFWQESVTSKKRLADVTQVEESVDREDYVLHKFFFEDAVQDFEELCQELYISRTTLKHVLAGIKERIIPYQLELEITHQHIQIRGKEEDIRHFIMDYFFVTSFDNTLSTMVGNTFLEGINFAEIMIIVLDECRDAKLKLSDFVMNNLVLHIALMVQRIRSGCPLELFSIPIAIRQSDEYQVALRILYRVEEVMGIRFPKEEANYIALHLKVKHSVGKHWQDDNTDEKLQDHLKACIAKISQLTGMTLETDTNLFQGLLAHMMPLTIRLENHIQLTNPLTEEIKSQYPEIFTLTKQTFSDLLVCQKNDVSDDEWAYISLHLMAAIERYSNRHKLRVLVVCATGYGSAMMLKNRLEKEFEGRLRIVDVISYYEITEERLKTVDLIISSISLANLMFLTPVITVSVFLSNQDIETIRQFIGEQEGIKKEVSLPSQMSLAKAEQLLTGVFSPNRFLYLDEKISKEDLLLRMIACLDEAGTETFVEDFYHQMVLRENYSPVIYGEVLAFPHPANPMTYSEQVVVVICREPLEWDKAHQAVHFVFLLSPSKGHNHRLKYVSPGLASFVNQVELQQALLEEPNYSKFMTVFTPLIHD”, “not soluble”.
For “MLSKVQCILNRRTMADVDVDVPSAAPVLDGAMDINTALQEVLKKSLIADGLVHGIHQACKALDKRQAVLCILAESFDEPNYKKLVTALCNEHQIPLIRVDSHKKLGEWSGLCKIDKEGKPRKVCGCSVVVIKDFGEETPALDVVKDHLRQNSLEHHHHHH”, the “soluble on expression in E. coli” value is “not soluble”.
As to “MLSSKEVYARLDAILPSSVDREDAESNLNAGEIEYAITALLDDAYTSVGLSDAVVSLIRENYDDGPVIDMLDALLYFQKLNSGGDAVRMQR”, the “soluble on expression in E. coli” value was “not soluble”.
Regarding “MLTESTDKKAVNQVIHYVYEGGGEAATDHNATVDFSRTITTDRVTNDKTYGDWTADNGDSFASVTSPVIDGYTADQLKVSEMTGITADTEDISVTVTYTRNQGTIDITYIDQTTGQTLSKLEHHHHHH”, the “soluble on expression in E. coli” value is recorded as “not soluble”.
Take “MLTGRESLLRLIGKRRRFLPNRHLLLSAHTPNSLNLEFNDYGNLVSLAGDDCRLSEDPTSSDDPSKFSDDLSLSTRKKRRLTQTTLLQSSFLSVPKQLEDGLVICTQQKSILDSETFEFSLVQRSEPSESICCKVEDGSCSPSREESLKTVTLDEDNGEAIETFIVGRKFSDVQDLEIGGDIFLLRHPENVKDRNAIKVISGDSEMLGYLPKDISQCLSPLIDDYDLKFEGTITSVPKKSSEAVLIKVVCHKMRSDGWKECELYGDFKPLWEKVLQVVEHQMQFPPKTTRYQLNFNVLLQEVLRSCSHLFTADEKAFLESFPTLSEDSQRLFIRLYTRKGPWFRLSNISYPEVTDSLQALKDLTVRGFMSSVKDANELDNQKMKEITELLNVTELRDILSMNKVFSRTSRKRDLINSLCSCYNDGTRINLATVILERTGLCAKVSSTAESLIWRVERLFFLNGEQDLSSFVLLDLGIIKYPTYKCIDSEQIFSNRTKLLAYEEAIEVAQLMDESLDNEDPQTVLKCIIIAETRISSSSLDSAHAAAFNRFTAPWVNSKVVLLGVSFFENQKRYNRAVYLLRRLLSCFNCDGRRGYWTVRLSTDLEHMGRPNESLTVAEQGLLDPWVRAGSRVALQRRILRLAKPPRRWKTPTFSNLVDNKIPEVTIQGRSLNCEVGIKNRFYGEDGEQCGVEQLALQYYSGEGGGWQGIHTESSIWLTIFGLLMWDILFSDVPGVFQTRFQVNETQ”: the “soluble on expression in E. coli” value was “not soluble”.

Source of the values: the DeepSol protein solubility set.
